Measurements from the supplement of paper PMC9732359.
± gives the uncertainty stated by the source.

Experiment: protein stability index of a GFP-peptide fusion (yeast GPS) (PSI 1-4); higher = more stable; sorted into four equal gates, so the index is relative within each strain
Procedure, shortened: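 Sequencing reads from sorted gates were used to score each peptide. The library consisted of tiled 17-residue yeast protein peptides fused downstream of GFP on a Cherry-expressing plasmid, pooled and carried in yeast. Mid-log cultures in leucine-free medium were split into four equal gates by GFP/Cherry ratio, and each gate's plasmids were PCR-amplified and Illumina-sequenced. The protein stability index adds up, over all gates, the read frequency multiplied by the gate number.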

| Sequence | protein stability index (doa10∆) | protein stability index (pdr5∆) | protein stability index (san1∆) | protein stability index (ubr1∆) |
| --- | --- | --- | --- | --- |
| VTTFLNWCAEPEHDERK [CYT1] | 3.41 ± 0.089 | 3.39 ± 0.092 | 3.08 ± 0.18 | 3.15 ± 0.077 |
| VTTFVFTGQGSQEQGMG [FAS1] | 3.46 ± 0.15 | 3.49 ± 0.13 | 3.48 ± 0.14 | 3.68 ± 0.18 |
| VTVDQYVNVAISIYNML [SSN2] | 1.72 ± 0.057 | 1.88 ± 0.062 | 1.52 ± 0.12 | 1.44 ± 0.052 |
| VTVSIKSRIVKVVGPRG [RPL9A] | 2.08 ± 0.051 | 2.63 ± 0.048 | 2.47 ± 0.052 | 2.75 ± 0.032 |
| VTYSRVSKKVDVRRLKK [BRN1] |  | 1.32 ± 0.14 |  | 3.23 ± 0.15 |
| VVDILSANGYLNATTAM [BRR2] | 2.75 ± 0.21 | 3.3 ± 0.22 | 3.17 ± 0.16 | 3.06 ± 0.2 |
| VVEKKTVGSSNGGLIHV [RPO21] | 2.97 ± 0.081 | 3.07 ± 0.079 | 2.8 ± 0.053 | 3 ± 0.055 |
| VVRAASSLASQDVDFYK [RRP6] | 2.13 ± 0.066 | 2.04 ± 0.057 | 3.06 ± 0.16 | 1.48 ± 0.089 |
| VVVDTVECAQHCIDYLR [SMC4] | 3.06 ± 0.11 | 2.79 ± 0.22 | 3.26 ± 0.074 | 3.01 ± 0.1 |
| VYRFVTENAIEEKVIER [ISW2] | 2.42 ± 0.11 | 2.46 ± 0.14 | 2.5 ± 0.25 | 2.7 ± 0.063 |
| WADIFAKALDGQNLKDL [RPP1A] | 3.08 ± 0.11 | 3.31 ± 0.13 | 2.58 ± 0.24 | 2.94 ± 0.2 |
| WAMQGISYLQEVQCTST [PCI8] | 3.32 ± 0.15 | 3.06 ± 0.13 | 2.19 ± 0.16 | 3.02 ± 0.099 |
| WAVISAFFREKGLVSQQ [RPB2] | 3.38 ± 0.14 | 3.46 ± 0.1 | 3.29 ± 0.078 | 3.14 ± 0.078 |
| WCCRSGSAADTQAIADI [PRE3] | 2.89 ± 0.12 | 3.03 ± 0.099 | 2.85 ± 0.11 | 2.93 ± 0.077 |
| WDGVIPTPAIIKPKPLW [RPO21] | 1.88 ± 0.099 | 2.08 ± 0.092 | 2.41 ± 0.096 | 2.06 ± 0.12 |
| WDHPVIAGVITRSKRLS [CSN12] | 2.86 ± 0.17 | 2.82 ± 0.11 | 3.13 ± 0.11 | 3.02 ± 0.068 |
| WDYLQLTVAMYINSDSV [RPO31] | 1.32 ± 0.071 | 1.34 ± 0.086 | 1.64 ± 0.25 | 1.58 ± 0.071 |
| WHGVHRNPARLMETLRT [RPB2] | 1.35 ± 0.073 | 1.3 ± 0.066 | 1.55 ± 0.18 | 1.2 ± 0.045 |
| WIWDMNVHGSLEPFLLM [BRR2] | 1.61 ± 0.06 | 2.08 ± 0.078 | 1.72 ± 0.2 | 1.81 ± 0.077 |
| WKAPSSIVLDSEHFDVN [DIS3] | 3.14 ± 0.062 | 3.47 ± 0.064 | 3.28 ± 0.056 | 3.33 ± 0.052 |
| WKSPEWIQVFGLRTENV [MED6] | 2.14 ± 0.084 | 2.22 ± 0.058 | 2 ± 0.13 | 2.35 ± 0.072 |
| WLIEGKLYVDAVHSIIA [YDL116W/NUP84] | 1.2 ± 0.18 | 1.32 ± 0.15 | 1.07 ± 0.28 | 1.1 ± 0.095 |
| WLNGKMDSKGKITIGIQ [RGR1] | 3.69 ± 0.12 | 3.47 ± 0.21 |  |  |
| WPIVNSKVYFNNQSKEK [RPN12] | 2.87 ± 0.15 | 2.78 ± 0.15 | 2.67 ± 0.21 | 3.03 ± 0.13 |
| WQEYSSVFKGGMQNLIK [SRP14] | 3.1 ± 0.12 | 3.44 ± 0.13 | 2.92 ± 0.14 | 3.16 ± 0.17 |
| WQGKPVFIRHRTPHEIQ [RIP1] |  | 2.24 ± 0.28 |  | 1.68 ± 0.17 |
| WQVIITDDQGRVIDDNN [SIR3] | 3.49 ± 0.11 | 3.43 ± 0.1 | 3.31 ± 0.08 | 3.52 ± 0.073 |

| Sequence | protein stability index (doa10∆) | protein stability index (pdr5∆) | protein stability index (san1∆) | protein stability index (ubr1∆) |
| --- | --- | --- | --- | --- |
| WRAHDSSIVAIDWASPE [YGL100W/SEH1] | 2.55 ± 0.092 | 2.8 ± 0.1 | 2.83 ± 0.078 | 2.79 ± 0.068 |
| WRFLQILRNGIDYLQRN [POP1] | 3.05 ± 0.059 | 2.82 ± 0.054 | 2.97 ± 0.052 | 2.72 ± 0.048 |
| WSCIVVENWIIDDKGVL [ITC1] | 2.18 ± 0.058 | 2.72 ± 0.08 | 2.71 ± 0.12 | 2.95 ± 0.063 |
| WSWDIAVDNCAICRNHI [HRT1] |  |  |  | 2.04 ± 0.23 |
| WTELCQREFKEIMEERN [NNF1] | 2.98 ± 0.21 | 3.41 ± 0.16 | 3.13 ± 0.072 | 3.2 ± 0.074 |
| WTRGTGLMSANNIIAEG [FAS2] | 2.98 ± 0.096 | 2.85 ± 0.086 | 3.06 ± 0.093 |  |
| WVIRKQRRTNNSGVGSA [MED6] | 2.48 ± 0.27 | 2.36 ± 0.14 | 2.58 ± 0.11 | 2.8 ± 0.14 |
| WVLHRDLKPANIMVTID [SSN3] | 1.28 ± 0.18 | 1.98 ± 0.14 |  | 2.48 ± 0.14 |
| WWTNSHHDGKLWNLNAY [PRP8] | 2.9 ± 0.21 | 2.76 ± 0.14 | 2.98 ± 0.082 | 2.45 ± 0.14 |
| YAKSEFDNVASVFMPLI [ECM29] | 3.04 ± 0.054 | 2.8 ± 0.049 | 3.08 ± 0.039 | 3.09 ± 0.046 |
| YALAAKDRFDIDEKSQF [RPN2] | 1.73 ± 0.09 | 2.1 ± 0.13 | 1.93 ± 0.17 | 2.66 ± 0.082 |
| YAQRIGSGAPVYLTAVL [HTA1] | 2.35 ± 0.058 | 2.48 ± 0.072 | 2.53 ± 0.097 | 2.35 ± 0.051 |
| YASLKLPNQIPGEYITT [YMR129W/POM152] | 1.97 ± 0.049 | 2.19 ± 0.059 | 2.07 ± 0.057 | 2.09 ± 0.036 |
| YDIVKFLTVSKLWAEII [GRR1] | 2.05 ± 0.041 | 2.59 ± 0.038 | 2.18 ± 0.048 | 2.44 ± 0.032 |
| YDKLPAGQNATVAVMSY [RET1] | 1.17 ± 0.046 | 1.31 ± 0.046 | 1.33 ± 0.13 | 1.18 ± 0.048 |
| YDLVILKSGLPLSGLLF [YMR129W/POM152] | 3.61 ± 0.17 | 2.53 ± 0.13 | 3.51 ± 0.049 | 2.11 ± 0.18 |
| YDPQRDKRFSGSLKLPN [RPL1A] | 3.09 ± 0.065 | 3.33 ± 0.068 | 3.02 ± 0.052 | 3.08 ± 0.048 |
| YDRQLSSLFLDGLEKAA [FAS2] | 2.96 ± 0.084 | 2.93 ± 0.074 | 2.79 ± 0.095 | 2.95 ± 0.079 |
| YEHNGRTLEAITATLVG [CSL4] | 2.03 ± 0.051 | 2.05 ± 0.051 | 1.83 ± 0.066 | 2.04 ± 0.038 |
| YEILLKILITYGSSPKL [SRB8] | 1.27 ± 0.055 | 1.6 ± 0.053 | 1.35 ± 0.092 | 1.47 ± 0.055 |
| YFAKLREYLEEYKSLFV [RPP0] | 2.46 ± 0.19 | 2.65 ± 0.15 | 2.98 ± 0.073 | 3.24 ± 0.095 |
| YFNQLKPYYFSNNHKLS [RPN12] | 1.17 ± 0.057 | 1.32 ± 0.077 | 1.19 ± 0.13 | 1.24 ± 0.04 |
| YFPEGYNNKVGVAASQG [SIR2] | 1.64 ± 0.055 | 2.03 ± 0.063 | 2.04 ± 0.16 | 1.81 ± 0.062 |
| YFQQTTIDWVEAGLQLC [PRP8] | 3.53 ± 0.11 | 3.19 ± 0.099 | 3.2 ± 0.064 | 3.04 ± 0.1 |
| YGDRMKLAKNLQIGDVV [RPO31] | 2.94 ± 0.13 | 3.49 ± 0.21 | 3.34 ± 0.1 | 3.57 ± 0.21 |
| YGGSRCANCVKERIIRA [RPL34A] | 1.56 ± 0.061 | 2.81 ± 0.074 | 2.44 ± 0.082 | 1.57 ± 0.065 |
| YGLFLKYHKEQFIKSNF [SRB8] | 2.15 ± 0.067 | 2.29 ± 0.045 | 1.97 ± 0.069 | 2.36 ± 0.054 |
